Measured values: US20110318339A1 (FABRUS, published 2011)
Where a chain is given by its changes, count along the chain named. Names and notes keep the numbering of the source. One block for each binder: values may come before it.

Experiments:
[1] = target: T1, recombinant mouse DLL4 (Cat# 1389-D4-050/CF, R&D Systems) (mouse, UniProt Q9JI71 28-525); assay: ELISA, mDLL4 coated 0.5 ng/ul, Fab 0.08 nM
T1 construct: Bought protein; also called mDLL4
Procedure: (§1) The plate was blocked by adding 1% BSA in Tris-buffered Saline Tween (TBST) and incubating for 1 hour at room temperature followed by washing 2 times with 150 μl TBST. A Fab antibody was serially diluted in 1% BSA in PBS. A 50 μl aliquot of each serial dilution was added, in triplicate, to each well and the plate was incubated for 1 hour at room temperature followed by washing 2 times with TBST. 50 μl of either goat anti-human kappa HRP conjugated secondary antibody (Cat # A7164-1 mL, Sigma-Aldrich) or goat anti-human lambda HRP conjugated secondary antibody (Cat # L1645-1 ml, Sigma-Aldrich), diluted 1:1000 in 1% BSA in PBS, was added to each well and the plate was incubated for 30 minutes at room temperature followed by washing 3 times with 200 μl TBST. Finally, 50 μl TMB one-component reagent (Cat # TMBW-1000-01, BioFax) was added and allowed to develop for 2 minutes at room temperature. The reaction was immediately halted by the addition of 50 μl 0.5M H₂SO₄ and the absorbance at 450 nm was measured using an ELISA plate reader.

[2] = target: T1, recombinant mouse DLL4 (Cat# …); assay: ELISA, mDLL4 coated 0.5 ng/ul, Fab 2.50 nM
Procedure: (§2) In this example, an ELISA binding assay was used to assess the dose-dependent binding of Fab antibodies to recombinant human DLL4 and recombinant mouse DLL4.
as §1

[3] = target: T2, recombinant human DLL4 (Cat# 1506-D4/CF, R&D Systems) (human, UniProt Q9NR61 27-529); assay: ELISA, hDLL4 coated 0.5 ng/ul, Fab 0.31 nM
T2 construct: Bought protein; also called hDLL4; h DLL4
Procedure: as §2, §1

[4] = target: T2, recombinant human DLL4 (Cat# …); assay: ELISA, hDLL4 coated 0.5 ng/ul, Fab 2.50 nM
Procedure: as §2, §1

[5] = target: T1, recombinant mouse DLL4 (Cat# …); assay: ELISA, mDLL4 coated 0.5 ng/ul, Fab 1.25 nM
Procedure: as §2, §1

[6] = target: T1, recombinant mouse DLL4 (Cat# …); assay: ELISA, mDLL4 coated 0.5 ng/ul, Fab 0.63 nM
Procedure: as §1

[7] = target: T2, recombinant human DLL4 (Cat# …); assay: ELISA, hDLL4 coated 0.5 ng/ul, Fab 1.25 nM
Procedure: as §2, §1

[8] = target: T2, recombinant human DLL4 (Cat# …); assay: ELISA, hDLL4 coated 0.5 ng/ul, Fab 5.00 nM
Procedure: as §2, §1

[9] = target: T1, recombinant mouse DLL4 (Cat# …); assay: ELISA, mDLL4 coated 0.5 ng/ul, Fab 10.00 nM
Procedure: as §1

[10] = target: T1, recombinant mouse DLL4 (Cat# …); assay: ELISA, mDLL4 coated 0.5 ng/ul, Fab 5.00 nM
Procedure: as §2, §1

[11] = target: T2, recombinant human DLL4 (Cat# …); assay: ELISA, hDLL4 coated 0.5 ng/ul, Fab 10.00 nM
Procedure: as §2, §1

[12] = target: T1, recombinant mouse DLL4 (Cat# …); assay: ELISA, mDLL4 coated 0.5 ng/ul, Fab 0.16 nM
Procedure: as §1

[13] = target: T2, recombinant human DLL4 (Cat# …); assay: ELISA, hDLL4 coated 0.5 ng/ul, Fab 0.16 nM
Procedure: as §2, §1

[14] = target: T2, recombinant human DLL4 (Cat# …); assay: ELISA, hDLL4 coated 0.5 ng/ul, Fab 0.63 nM
Procedure: as §1

[15] = target: T1, recombinant mouse DLL4 (Cat# …); assay: ELISA, mDLL4 coated 0.5 ng/ul, Fab 0.31 nM
Procedure: as §1

[16] = target: T2, recombinant human DLL4 (Cat# …); assay: ELISA, hDLL4 coated 0.5 ng/ul, Fab 0.08 nM
Procedure: as §1

[17] = target: T3, full-length human DLL4 expressed on the surface of CHO cells (human, UniProt Q9NR61 26-685); assay: flow cytometry competition, 250 nM biotinylated Notch-Fc as competitor, Fab 10 nM
T3 construct: also called CHO-DLL4; DLL4-expressing CHO cells
Procedure: (§3) Streptavidin-PE was used as a detection molecule.
(§4) Fab was 5-fold serially diluted in 2% BSA/PBS from a starting concentration of 50 nM. […] PE-labeled streptavidin (Cat# 21627, Pierce-Thermo Scientific) was then added to a final dilution of 1:5 followed by incubation for 10 minutes at room temperature. The cells were then washed twice in 2% BSA/PBS and analyzed by flow cytometry on a BD FACSAria.

[18] = target: T3, full-length human DLL4 expressed on the …; assay: flow cytometry competition, 250 nM biotinylated Notch-Fc as competitor, Fab 50 nM
Procedure: as §3, §4

[19] = target: T3, full-length human DLL4 expressed on the …; assay: flow cytometry competition, 250 nM biotinylated Notch-Fc as competitor, Fab 2 nM
Procedure: as §3, §4

T1 sequence (Q9JI71 28-525 limits assumed): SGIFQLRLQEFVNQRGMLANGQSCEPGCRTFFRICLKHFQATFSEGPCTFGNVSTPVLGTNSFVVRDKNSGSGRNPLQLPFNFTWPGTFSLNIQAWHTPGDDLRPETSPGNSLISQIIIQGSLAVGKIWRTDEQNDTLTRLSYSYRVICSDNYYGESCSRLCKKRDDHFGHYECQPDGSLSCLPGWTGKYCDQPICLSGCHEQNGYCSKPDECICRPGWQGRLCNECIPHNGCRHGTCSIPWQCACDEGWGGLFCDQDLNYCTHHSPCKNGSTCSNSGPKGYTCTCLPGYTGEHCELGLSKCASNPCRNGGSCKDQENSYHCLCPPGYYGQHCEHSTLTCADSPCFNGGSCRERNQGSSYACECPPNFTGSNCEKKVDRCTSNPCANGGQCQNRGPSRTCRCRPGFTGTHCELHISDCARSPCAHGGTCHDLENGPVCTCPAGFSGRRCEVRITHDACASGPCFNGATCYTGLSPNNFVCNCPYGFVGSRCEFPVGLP

- ELISA absorbance at 450 nm [1]: 0.063 A450
- ELISA absorbance at 450 nm [2]: 0.583 A450
- ELISA absorbance at 450 nm [3]: 0.683 A450
- ELISA absorbance at 450 nm [4]: 1.83 A450
- ELISA absorbance at 450 nm [5]: 0.317 A450
- ELISA absorbance at 450 nm [6]: 0.206 A450
- ELISA absorbance at 450 nm [7]: 1.4 A450
- ELISA absorbance at 450 nm [8]: 1.92 A450
- ELISA absorbance at 450 nm [9]: 1.22 A450
- ELISA absorbance at 450 nm [10]: 0.833 A450
- ELISA absorbance at 450 nm [11]: 2.25 A450
- ELISA absorbance at 450 nm [12]: 0.081 A450
- ELISA absorbance at 450 nm [13]: 0.407 A450
- ELISA absorbance at 450 nm [14]: 1.09 A450
- ELISA absorbance at 450 nm [15]: 0.105 A450
- ELISA absorbance at 450 nm [16]: 0.189 A450
B1: Fab VH1-46_IGHD6-6*01_IGHJ1*01 S102A/S103P/S104F/H111F I51V/N52L/S54T/G56H (H:APFF VLTH) & L6_IGKJ1*01 S28N/S30D/S31H (L:NDH) (Fab, V domains shown)
VH: QVQLVQSGAEVKKPGASVKVSCKASGYTFTSYYMHWVRQAPGQGLEWMGIVLPTGHSTSYAQKFQGRVTMTRDTSTSTVYMELSSLRSEDTAVYYCAREEYAPFSAEYFQFWGQGTLVTVSS
VL: EIVLTQSPATLSLSPGERATLSCRASQNVDHYLAWYQQKPGQAPRLLIYDASNRATGIPARFSGSGSGTDFTLTISSLEPEDFAVYYCQQRSNWPPWTFGQGTKVEIKR
notes: Tested as Fab from E. coli (Plasmid A: CH1, His6, Flag; Plasmid C: CL kappa); also called H:APFF VLTH & L:NDH; APFF VLTH / NDH

- ELISA absorbance at 450 nm [1]: 0.078 A450
- ELISA absorbance at 450 nm [2]: 0.983 A450
- ELISA absorbance at 450 nm [3]: 0.85 A450
- ELISA absorbance at 450 nm [4]: 1.96 A450
- ELISA absorbance at 450 nm [5]: 0.604 A450
- ELISA absorbance at 450 nm [6]: 0.404 A450
- ELISA absorbance at 450 nm [7]: 1.65 A450
- ELISA absorbance at 450 nm [8]: 2.06 A450
- ELISA absorbance at 450 nm [9]: 1.55 A450
- ELISA absorbance at 450 nm [10]: 1.28 A450
- signal of Notch-Fc bound to CHO-DLL4 (streptavidin-PE) [17]: 30
- signal of Notch-Fc bound to CHO-DLL4 (streptavidin-PE) [18]: 30
- ELISA absorbance at 450 nm [11]: 2.25 A450
- ELISA absorbance at 450 nm [12]: 0.142 A450
- ELISA absorbance at 450 nm [13]: 0.593 A450
- ELISA absorbance at 450 nm [14]: 1.4 A450
- ELISA absorbance at 450 nm [15]: 0.205 A450
- signal of Notch-Fc bound to CHO-DLL4 (streptavidin-PE) [19]: 117
- ELISA absorbance at 450 nm [16]: 0.259 A450
B2: Fab VH1-46_IGHD6-6*01_IGHJ1*01 S102A/S103P/S104F/H111F I51V/N52L/S54T/G56H (H:APFF VLTH) & L6_IGKJ1*01 S28N/S30D/S31H S52L/A55S (L:NDH LS) (Fab, V domains shown)
VH: B1 VH
VL: B1 VL with S52L, A55S
notes: Tested as Fab from E. coli (Plasmid A: CH1, His6, Flag; Plasmid C: CL kappa); also called H:APFF VLTH & L:NDH LS; APFF VLTH / NDH LS

- ELISA absorbance at 450 nm [1]: 0.048 A450
- ELISA absorbance at 450 nm [2]: 0.061 A450
- ELISA absorbance at 450 nm [3]: 0.103 A450
- ELISA absorbance at 450 nm [4]: 0.535 A450
- ELISA absorbance at 450 nm [5]: 0.054 A450
- ELISA absorbance at 450 nm [6]: 0.052 A450
- ELISA absorbance at 450 nm [7]: 0.264 A450
- ELISA absorbance at 450 nm [8]: 0.882 A450
- ELISA absorbance at 450 nm [9]: 0.088 A450
- ELISA absorbance at 450 nm [10]: 0.07 A450
- ELISA absorbance at 450 nm [11]: 1.2 A450
- ELISA absorbance at 450 nm [12]: 0.048 A450
- ELISA absorbance at 450 nm [13]: 0.079 A450
- ELISA absorbance at 450 nm [14]: 0.168 A450
- ELISA absorbance at 450 nm [15]: 0.049 A450
- ELISA absorbance at 450 nm [16]: 0.071 A450
B3: Fab VH1-46_IGHD6-6*01_IGHJ1*01 S102A/S103P/S104F/H111F G56H (H:APFF G56H) & L6_IGKJ1*01 (Fab, V domains shown)
VH: B1 VH with V51I, L52N, T54S
VL: not shown
notes: Tested as Fab from E. coli: VH cloned into Plasmid A (CH1, His6 and Flag tags), kappa VL into Plasmid C (CL kappa); also called H:APFF G56H & L:wt
